Paper PMC13351892, “Tool antibody fragments reveal multiple conformations of the rhodopsin-Gi signaling complex” (Biophysical Journal, 2025)

Target: T1, human Gαi1 (human, UniProt P63096)
T1 construct: also called Gαi subunit; source: prepared as described (11)
Experiment: cryo-EM structure; Rho-Gαiβγ-scFv16-Fab79, mixed 1:1.4:1.4 in 0.02% LMNG, purified by SEC; two conformations at 5.2 and 5.9 Å
Conditions: both partners purified

T1 sequence (P63096 whole entry): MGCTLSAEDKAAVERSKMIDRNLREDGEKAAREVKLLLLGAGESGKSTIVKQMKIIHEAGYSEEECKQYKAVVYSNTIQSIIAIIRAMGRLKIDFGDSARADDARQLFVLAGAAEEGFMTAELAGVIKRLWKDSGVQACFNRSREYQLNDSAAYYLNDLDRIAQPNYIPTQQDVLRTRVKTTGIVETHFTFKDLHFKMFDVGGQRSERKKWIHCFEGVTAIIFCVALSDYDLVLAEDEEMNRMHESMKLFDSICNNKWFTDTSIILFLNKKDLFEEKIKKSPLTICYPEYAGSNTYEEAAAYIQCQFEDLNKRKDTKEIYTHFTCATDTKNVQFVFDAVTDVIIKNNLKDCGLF

- binding result: binds
B1: Fab79 (Fab, V domains shown)
VH: EVQLVESGGGLVKPGGSLKLSCAASGFTFSSYAMSWVRQTPEKRLEWVATISSRGLYTYFPDSMKGRFTISRDNAKNTLSLQMSSLRSEDTAMYYCLRGGGYDADYWGQGTTLTVSS
VL: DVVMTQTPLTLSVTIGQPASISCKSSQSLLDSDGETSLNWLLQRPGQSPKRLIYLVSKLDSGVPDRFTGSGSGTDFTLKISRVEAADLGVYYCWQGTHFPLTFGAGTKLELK
notes: Fab79 heavy chain; also in the deposited models PDB 8P13 and 8P15; Fab79 light chain; source: prepared as described (11); from mice immunized with the purified Rho-Gαiβγ complex
